Experimental data taken from patent publication US20180265850A1.

Columns and labels:
[1] = molecular target: human FKBP (12 kD, GenBank accession number: AAP36774.1) (human) (UniProt P62942); experiment: cell-based or functional assay
[2] = molecular target: FRB (11 kD, PDB access number: 1AUE A) (UniProt P42345); experiment: cell-based or functional assay

Chain of human FKBP (12 kD, GenBank accession number: AAP36774.1) (human) (P62942 whole entry): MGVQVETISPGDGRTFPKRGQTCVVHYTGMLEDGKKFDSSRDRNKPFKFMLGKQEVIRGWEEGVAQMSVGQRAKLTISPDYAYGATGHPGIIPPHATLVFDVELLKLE
Chain of human FKBP (12 kD, GenBank accession number: AAP36774.1) (P62942 whole entry): as above

Row | bioluminescence intensity of probe TPv2.4 (printed 'TPv2') in COS-7 lysate, 10^-6 M rapamycin vs vehicle [1] [fold] | bioluminescence of living COS-7 cells expressing TPv2.4 on a microslide, 10^-6 M rapamycin vs control [1] [fold] | bioluminescence of probe TPv2.7 (FRB-ALuc30(1-212)-FKBP), 10^-6 M rapamycin vs vehicle [1] [fold] | bioluminescence of probe TPv2.8 (FRB-ALuc30(19-212)-FKBP), 10^-6 M rapamycin vs vehicle [1] [fold] | luminescence intensity of cells expressing TPv2.4, 10^-6 M rapamycin [1] [fold] | optical intensity of probe TPv1.3 (printed 'TPv11.3'; FKBP-ALuc23(1-212)-FRB) with 10^-6 M rapamycin (fraction of intensity without rapamycin) [2] | optical intensity of probe TPv1.7 (FKBP-ALuc30(1-212)-FRB) with 10^-6 M rapamycin (fraction of intensity without rapamycin) [2] | Substance
1 | 6.7 | 6 | 2 | 2 | 5.4 |  |  | FRB (11 kD, PDB access number: 1AUE A) (from UniProt P42345 2015-2114)
2 |  |  |  |  |  | 0.33 | 0.33 | human FKBP (12 kD, GenBank accession number: AAP36774.1) (from UniProt P62942 1-108)
